Test [1] concerns the target T1, hKGF receptor present in the PC-3 plasma membrane extracts (UniProt P21802-3 22-822, limits assumed).
T1 construct: A crude detergent extract, not a purified protein; Two complexes (C1, C2) were seen; also called component found in the PC-3 membrane extracts
In words: native gel electrophoretic mobility shift of 125I-hKGF by PC-3 plasma membrane extract. The method, then: (§1) For electrophoretic mobility shift gels, about 3×10⁷ PC-3 cells were gently spun and washed with PBS and then lysed by mixing with equal volume of lysis buffer containing 40 mM Hepes, pH 7.4, 150 mM NaCl, 20% glycerol, 2% triton X-100, 0.1% sodium azide, 3 mM MgCl₂, 3 mM EGTA, 2 μM aprotinin, 2 μM leupeptin, 2 mM PMSF, and 400 μM sodium orthovanadate. Following 15 min incubation on ice the extract was spun at 11,000 g at 4° C. for 30 min to remove debris and nuclei and the supernatant was aliquoted and stored at −70° C. […] Following a 10 min incubation at room temperature, 6× loading dye was added to achieve 1× concentration, and the samples were loaded onto a 5% or 10% native TBE polyacrylamide gel. The gel was prerun at room temperature at 100 Volts. Following loading, the gel was run at 200 Volts for 5 min and then at 100 Volts for 30-60 min at room temperature. The radioactive bands were then visualized by autoradiography.
For orientation: In EMSA bound probe runs differently from free probe, usually more slowly.

For test [2], the target named is T1, hKGF receptor present in the PC-3 …. Kind of test: gel shift competition: unlabeled hKGF against 125I-hKGF with PC-3 plasma membrane extract. The method, then: as §1

T1 sequence (P21802 other isoform, or with tags, fused parts or gaps limits assumed): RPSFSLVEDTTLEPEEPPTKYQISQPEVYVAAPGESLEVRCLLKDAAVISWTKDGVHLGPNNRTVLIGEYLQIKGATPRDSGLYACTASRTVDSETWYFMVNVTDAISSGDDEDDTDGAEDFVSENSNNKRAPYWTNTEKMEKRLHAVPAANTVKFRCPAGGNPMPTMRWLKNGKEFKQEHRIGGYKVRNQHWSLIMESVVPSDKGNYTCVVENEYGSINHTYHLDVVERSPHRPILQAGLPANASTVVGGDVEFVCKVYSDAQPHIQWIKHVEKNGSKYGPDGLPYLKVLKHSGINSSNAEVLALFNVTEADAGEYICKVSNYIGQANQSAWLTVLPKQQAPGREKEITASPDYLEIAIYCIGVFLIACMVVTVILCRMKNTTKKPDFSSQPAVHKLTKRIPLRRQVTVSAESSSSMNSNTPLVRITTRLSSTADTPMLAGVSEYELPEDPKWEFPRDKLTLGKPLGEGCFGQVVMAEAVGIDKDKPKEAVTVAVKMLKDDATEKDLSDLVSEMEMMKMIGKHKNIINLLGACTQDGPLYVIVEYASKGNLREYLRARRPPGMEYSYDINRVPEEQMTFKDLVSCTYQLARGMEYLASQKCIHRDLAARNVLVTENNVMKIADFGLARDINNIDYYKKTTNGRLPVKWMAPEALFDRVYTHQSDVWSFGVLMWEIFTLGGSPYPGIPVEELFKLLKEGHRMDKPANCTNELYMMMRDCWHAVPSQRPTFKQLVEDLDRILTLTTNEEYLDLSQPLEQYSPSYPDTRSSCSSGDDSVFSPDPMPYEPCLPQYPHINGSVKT

B1: Recombinant human Keratinocyte Growth Factor (hKGF) (ligand, UniProt P21781 32-194, looked up)
chain: CNDMTPEQMATNVNCSSPERHTRSYDYMEGGDIRVRRLFCRTQWYLRIDKRGKVKGTQEMKNNYNIMEIRTVAVGIVAIKGVESEFYLAMNKEGKLYAKKECNEDCNFKELILENHYNTYASAKWTHNGGEMFVALNQKGIPVRGKKTKKEQKTAHFLPMAIT
notes: also called FGF-7
Usually Kd stands for the constant that tells how readily two partners part at equilibrium. As usually defined, the IC50 is the concentration that gives 50% inhibition. As for B1, in test [1], the Kd is about 8 nM. For the same molecule, the IC50 in test [2] stood at 70 nM.

The values above are taken from patent US20030180744A1 (published 2003).
